Results reported in publication PMC12243203.

Target: recombinant His-EtSERPIN1 protein (Eimeria tenella)

“recombinant His-tag GgANXA2 protein (from UniProt P17785 1-339) (natural protein)” gave an adhesion rate to DF-1 cells of yeast cells displaying EtSERPIN1 that were pre-incubated with recombinant GgANXA2 protein (PBS group: 26.75%) of 44.3%.
